# From the nanobody polyreactivity screen of Harvey et al. (2022)
# Test: yeast display, Sf9 membrane polyspecificity reagent, FACS + sequencing; frameworks hold sequencing errors
# In short: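 After 36–48 hours of galactose induction, yeast (Saccharomyces cerevisiae BJ5465) displaying a synthetic nanobody library were stained at 4 °C for 1 hour with 10% biotinylated, detergent-solubilized Sf9 membrane reagent. Streptavidin microbeads enriched the stained cells before FACS sorting into low and high (top ~1%) gates on anti-HA and streptavidin fluorescence. Each clone's polyreactivity label reflects its gate of origin.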
row,Sequence,polyreactivity (PSR sort gate)
1,QVQLVESGGGLVQAGGSLRLSCAASGSIKDNVMGWYRQAPGKERELVAAITRSAGRTYYADSVMGRFTISRDNEKNTVYLQMNSLKPEDTAVYYCASQAERYGYEYWGQGTQVTVSS,low polyreactivity
2,QVQLVESGGGLVQAGGSLRLSCAASGSILAANAMGWYRQAPGKERELVAAIDWTGGDTYYADSVKGRFTISRDNAKNTVYLQMNSLKPEDTAVYYCAAEFVWPSIAYDVEYDYWGQGTQVTVSS,low polyreactivity
3,QVQLVESGGGLVQAGGSLRLSCAASGSILAGNVMGWYRQAPGKERELVAAITGSGGITYYADSVKGRFTISRDNAKNTVYLQMNSLKPEDTAVYYCNAVPDTRSGELDYWGQGTQVTVSS,low polyreactivity
4,QVQLVESGGGLVQAGGSLRLSCAASGSILAVNAMGWYRQAPGKERELVAAISSRGGSTSYADSVKGRFTISRDNAKNTVYLQMNSLKPEDTAVYYCAVRAVRRLRTSVPVRFYYWGQGTQVTVSS,high polyreactivity
5,QVQLVESGGGLVQAGGSLRLSCAASGSILDSNAMGWYRPAPGKERELVAAITSGGSTYYADSVKGRFTISRDNAKNTVYLQMNSLKPEDTAVYYCAAAYLGYGAVQPSYEGGYWGQGTQVTVSS,low polyreactivity
6,QVQLVESGGGLVQAGGSLRLSCAASGSILFYAMGWYRQAHGKERELVAAITWRGGSTFYADSVKGRFTISRDNAKNTVYLQMNSLKPDDTAVYYCAASYYRYGHRSRGRYYYWGQGTQVTVSS,high polyreactivity
7,QVQLVESGGGLVQAGGSLRLSCAASGSILGDYAMGWDRQAPGKEREFVAAIDGSDGSTYYADSVKGRFTISRDNAKNTVYLQMNILKPEDTEVYYCAATDYDTYRSSWYVYWGQCTQVTVSS,low polyreactivity
8,QVQLVESGGGLVQAGGSLRLSCAASGSILGINVMGWYRQAPGKERELVAAISWRVGRTYYADSVKGRFTISRDNAKKTDDLQMNSLKPEDTAVYYCNVDRWGNIPVGDYDYWGQGTEVTVSS,high polyreactivity
9,QVQLVESGGGLVQAGGSLRLSCAASGSILGLYAMGWYRQAPGKERELVAAISSGGSTYYADSVKGRFTISRDNAKNTVYLQMNSLKPEDSAVYYCAADLSWSRVVFGDYDYWGQGTQVTVSS,low polyreactivity
10,QVQLVESGGGLVQAGGSLRLSCAASGSILGRYAMGWYRQAPGKERELVAAITNRGGSTYYADSVNGRFTISRDNAKNTVYLQMNSLKPEDTAVYYCAAPYSAKELYYRMDYWGQGTQVTVSS,high polyreactivity
11,QVQLVESGGGLVQAGGSLRLSCAASGSILGTYAMGWTIQAPGKERELVAAISSSGRTSYADSEKGRFTISRDNAKNTVYLQMNSLKPEDTAVYYCNASNYIVLINDPDAAPWLYDYWGQVTQVTVSS,low polyreactivity
12,QVQLVESGGGLVQAGGSLRLSCAASGSILGTYAMGWYRQAPGKERELVAAITLSTDGTYYADSVKGRFTISRDNAKNTVYLQMNSLKPEDTAVDYCAAPWNWRWVTQWGYYVRADYFWGQGTQVTVSS,low polyreactivity
13,QVQLVESGGGLVQAGGSLRLSCAASGSILGYYAMGWYRQAPGKERELVAAISSGGSTNYADSVKGRFTISRDNAKNTVYLQMNSLKPEDTAVYYCAADRTYHGGFDYWGQGTQVTVSS,low polyreactivity
14,QVQLVESGGGLVQAGGSLRLSCAASGSILGYYAMGWYRQAPGKERELVADIDNGTSTYYADSVKGRFTISRDNANNTVYLQMISLKPEDTAVYYCADEYYSRYFQSYYWGQGTQVTVSS,low polyreactivity
15,QVQLVESGGGLVQAGGSLRLSCAASGSILGYYAMRWYRQAPGKDRELVAAISSGGSTNYADSVKGRFTISRDNAKNTVYLQMNSLKPEDTAVYYCAADRTYHGGFDYWGLGTQVTVSS,low polyreactivity
16,QVQLVESGGGLVQAGGSLRLSCAASGSILHAYALGWYRQAPGTERELVAAINWSGGSTYYADSVKGRFTISRDNAKNTVYLQMNSLKPEDTAVYYCAKVWRYGRYEYGYWGQGTQVTVSS,high polyreactivity
17,QVQLVESGGGLVQAGGSLRLSCAASGSILIYNAMGWYRQAPGKERELVAGISRRGASTYYADSVKGRFTISRDNAKNTVYLQMNSLKPEDTAVYYCAALGKYIVAWAGDYWGQGTQVTVSS,low polyreactivity
18,QVQLVESGGGLVQAGGSLRLSCAASGSILKFNAMGWYRQAPGKERELVAAITRGTNTYYADSVKGRFTISRDNAKNTVYLQMNSLKPEDSAVYYCAARQPYNAFGYFYWGQGTQVTVSS,low polyreactivity
19,QVQLVESGGGLVQAGGSLRLSCAASGSILKYYAMGWYRQAPGKERELLAAISWSGGRTYYADSVKGRFTISRDNAKNTVYLQMNSLKPEDTAVYYCAAENYGSGSWHGPEYDYWGQGTQVTVSS,low polyreactivity
20,QVQLVESGGGLVQAGGSLRLSCAASGSILKYYAMGWYRQAPGKERELVAAISRSGGSTYYADSVKGRFTISRDNAKITVYLQMTSLKPEDTAVYYCAAYYNLPYHGSDYWGQGTQVTVSS,high polyreactivity
21,QVQLVESGGGLVQAGGSLRLSCAASGSILLGYAMGWYRQAPGKERELVAAITFRGGSTYYADSVKGRFTISRDNAKNTVYLQMNSLKPEATAVYYCAKVWWLYSSTYLRYYWGQGTQVTVSS,low polyreactivity
22,QVQLVESGGGLVQAGGSLRLSCAASGSILLRYAMGWYRQAPGKERELVAAIRTIGASTYYADSVKGRFTISRDNAKNTVYLQMNSLKPEDTAVYYCNAYLAEVLPLGKGRLYDYWGQGTQVTVSS,low polyreactivity

row,Sequence,polyreactivity (PSR sort gate)
1,QVQLVESGGGLVQAGGSLRLSCAASGSILPRYGMGWYRQAPGKEREFVAAISWRGGRTYYADSVKGRFTISRDNAKNTVYLQMNSLKPEDTAVYYCAARANIYTRLDYWGQGTQVTVSS,high polyreactivity
2,QVQLVESGGGLVQAGGSLRLSCAASGSILRPNAMGWYRQAPGKERELVAAITTTGGSTYYADSVKGRFTISRDNAKNTVYLLMNRLKPEDTAVYYCAAEYVYLYYLYLYYYWGQGTQVTVSS,high polyreactivity
3,QVQLVESGGGLVQAGGSLRLSCAASGSILRQYAMGWYRPAPGKERELVAAINSGGSTNYADSVKGRITISRDNAKNTVYLQMNSLKPEDTAVYFCAADWSLYSHEFDYWGQGTQVTVSS,high polyreactivity
4,QVQLVESGGGLVQAGGSLRLSCAASGSILRRYAMGWYRQAPGKERELVAAINYSGGNTYYADSVKGRFTISRDNAKNTVYLQMNSLKPEDTAVYFCAAYYGPYSARYYGGYEYWGQGTQVTVSS,high polyreactivity
5,QVQLVESGGGLVQAGGSLRLSCAASGSILSGYAMGWYRQAPGKERELVAAISWSGGSTYYADSVKGRFTISRDNAKNTVYLQMNSLKPEDTAVYYCAAASVPWGGYYWGQGTQVTVSS,low polyreactivity
6,QVQLVESGGGLVQAGGSLRLSCAASGSILSHYAMGWYRQAPGKERELVAAITTRGGSTYYADSVKGRFTISRDNAKNTVFLQMNSLKPEDTAVYYCAARGGVDSAYYGYWGQGTQVTVSS,high polyreactivity
7,QVQLVESGGGLVQAGGSLRLSCAASGSILSLYTMGWYRQAPGKERELVAAITRSGGSTYYADSVKGRFTISRDNAKNTVYLQMNSLKPEDTAVYYCAATREVTSYSSAPRVYYWGQGTQVTVSS,high polyreactivity
8,QVQLVESGGGLVQAGGSLRLSCAASGSILSSYAMGWYRQAPGKERELVAAISKSGTRTYYADSVKGRFTISRDNAKNTVYLQMNSLKPEDTAVYYCAVVYYGSIFVLEYDYWGQGTQVTVSS,high polyreactivity
9,QVQLVESGGGLVQAGGSLRLSCAASGSILSYNAMGWSRQAPGKERELVATITGTGGSTRYADSVKGRFTISRDNAKNTVYLQMNSLKPEDTAVYYCATAAWWYYRIYHEFGYWGQGTQVTVSS,high polyreactivity
10,QVQLVESGGGLVQAGGSLRLSCAASGSILSYYAMGWYRLAPGKEREFVAAISSGGGTYYADSVKGRFTISRDNAKNTVYLQMNSLKPEDTAVYYCNAVHASSIQFEYWGQGTKVTVSS,low polyreactivity
11,QVQLVESGGGLVQAGGSLRLSCAASGSILSYYAMGWYRQAPGKERELVAAISSTGSTNYADSVKGRFTISRDNAKNTLYLQMNSLKPEDTAVYYCATDGDPYADEGGYWGQGTQVTVSS,high polyreactivity
12,QVQLVESGGGLVQAGGSLRLSCAASGSILTAYAMGWYRQAPGKERELVAAISRGDITKYADSVKGRFTISRDNAKNTVYLQMNRLKPEDTAVYYCAARVPRYSDSTRGRADYYWGQGTQVTVSS,high polyreactivity
13,QVQLVESGGGLVQAGGSLRLSCAASGSILTDNAMGWYRQAPGKERELVASITGSGGSTYYADSVKGRFTISRDNAKNTVYLQMNSLKPEDTAVYYCAASYRLRYGYWGQGTQVTVSS,high polyreactivity
14,QVQLVESGGGLVQAGGSLRLSCAASGSILTDNAMRWYRQAPGKERELVAAITSGGYTYYADSVKGRFTISRDNAKNTVYLHMNILKPEDTAVYYCNADPYTYSYGMYYWGQGTQVTVSS,low polyreactivity
15,QVQLVESGGGLVQAGGSLRLSCAASGSILTYNAMGWYRQAPGKERELVAAITSSGNTNYADSVKGRFTISRDNAKNTVYLQMNSLKPEDTAVYYCARDLREWGQGTQVTVSS,low polyreactivity
16,QVQLVESGGGLVQAGGSLRLSCAASGSILWENAMGWYRQAPGKERELVATISVSGGGTYYADSVKGRFTISRDNAKNTVYLQMNSLKPEDTAVYYCAAPGFPSRNGFGYWGQGTQVTVSS,low polyreactivity
17,QVQLVESGGGLVQAGGSLRLSCAASGSILWEYAMGWYRQAHGKERELVATISSGGCSTNYADSVKGRFTISRDNAKHNFYLPMKSLKPEDTAVYYCNALTSYLVTYEFDSWGIGTQVTVSS,low polyreactivity
18,QVQLVESGGGLVQAGGSLRLSCAASGSILWLNAMGWYRPAPGKERELVADITRGGSTYYADSVKGRFTISRDNAKNTVYLQMNSLKPEDTAVYYCAADAYTGQIPYYYFEHYYWGQGTQVTVSS,high polyreactivity
19,QVQLVESGGGLVQAGGSLRLSCAASGSILWQYAMGWYRQAPGKERELVAAISTGGSTYYAESVKGRFTISRDNAKNTVYLQMNSLKPEDTAVYYCAAYVDYSVYFGGGYWGQGTQVTVSS,low polyreactivity
20,QVQLVESGGGLVQAGGSLRLSCAASGSILYFNAMGWYRQAPGKERELVAAISRTGSRTYYADSVKGRFTISRDNAKNTVYLQMNSLKPEDTAVFYCAAYNGITSHLRFDYWGQGTQVTVSS,high polyreactivity
21,QVQLVESGGGLVQAGGSLRLSCAASGSILYIYAMGWYRQAPGKERELVAAISKNSADTYYADSVKGRFTISRDNAKNTVYLQMNSLKPEDTAVYYCAADVVKVAAYNYWGQGSQVTVSS,low polyreactivity
